Laboratory results taken from publication PMC7672554, “Selective Metal Ion Utilization Contributes to the Transformation of the Activity of Yeast Polymerase η from DNA Polymerization toward RNA Polymerization” (International Journal of Molecular Sciences, 2020).

Columns and labels:
Assay in all cases: steady-state primer extension, Cy3-labelled RNA primer/DNA template, gel quantitation
Assay type in all cases: biochemical, Saccharomyces cerevisiae
[1] = substrate: Nc1ncnc2c1ncn2[C@@H]1O[C@H](COP(=O)(O)OP(=O)(O)OP(=O)(O)O)[C@@H](O)[C@H]1O; conditions: RNA primer, template T (correct pair), 5 mM Mn2+, 20 nM primer/template, 25 mM Tris/HCl pH 7.5, 30 °C
Source text: (§1) steady-state primer extension, Cy3-labelled RNA primer/DNA template, gel quantitation on Polη (yeast Polymerase η)

[2] = substrate: Nc1ccn([C@@H]2O[C@H](COP(=O)(O)OP(=O)(O)OP(=O)(O)O)[C@@H](O)[C@H]2O)c(=O)n1; conditions: RNA primer, template G (correct pair), 5 mM Mn2+, 20 nM primer/template, 25 mM Tris/HCl pH 7.5, 30 °C
Source text: as §1

[3] = substrate: Nc1nc2c(ncn2[C@@H]2O[C@H](COP(=O)(O)OP(=O)(O)OP(=O)(O)O)[C@@H](O)[C@H]2O)c(=O)[nH]1; conditions: RNA primer, template C (correct pair), 5 mM Mn2+, 20 nM primer/template, 25 mM Tris/HCl pH 7.5, 30 °C
Source text: as §1

[4] = substrate: O=c1ccn([C@@H]2O[C@H](COP(=O)(O)OP(=O)(O)OP(=O)(O)O)[C@@H](O)[C@H]2O)c(=O)[nH]1; conditions: RNA primer, template A (correct pair), 5 mM Mn2+, 20 nM primer/template, 25 mM Tris/HCl pH 7.5, 30 °C
Source text: as §1

B1: Polη (yeast Polymerase η) (Saccharomyces cerevisiae S288C) (protein)
chain: MSKFTWKELIQLGSPSKAYESSLACIAHIDMNAFFAQVEQMRCGLSKEDPVVCVQWNSIIAVSYAARKYGISRMDTIQEALKKCSNLIPIHTAVFKKGEDFWQYHDGCGSWVQDPAKQISVEDHKVSLEPYRRESRKALKIFKSACDLVERASIDEVFLDLGRICFNMLMFDNEYELTGDLKLKDALSNIREAFIGGNYDINSHLPLIPEKIKSLKFEGDVFNPEGRDLITDWDDVILALGSQVCKGIRDSIKDILGYTTSCGLSSTKNVCKLASNYKKPDAQTIVKNDCLLDFLDCGKFEITSFWTLGGVLGKELIDVLDLPHENSIKHIRETWPDNAGQLKEFLDAKVKQSDYDRSTSNIDPLKTADLAEKLFKLSRGRYGLPLSSRPVVKSMMSNKNLRGKSCNSIVDCISWLEVFCAELTSRIQDLEQEYNKIVIPRTVSISLKTKSYEVYRKSGPVAYKGINFQSHELLKVGIKFVTDLDIKGKNKSYYPLTKLSMTITNFDIIDLQKTVVDMFGNQVHTFKSSAGKEDEEKTTSSKADEKTPKLECCKYQVTFTDQKALQEHADYHLALKLSEGLNGAEESSKNLSFGEKRLLFSRKRPNSQHTATPQKKQVTSSKNILSFFTRKK
notes: overexpressed in yeast as N-terminal GST fusion, GST removed with PreScission protease; no truncation stated
[1]
  Km: 2.51 ± 0.64 µM
  kcat: 0.0435 ± 0.00233 s⁻¹
  kcat/Km: 17300 M⁻¹ s⁻¹
[2]
  Km: 1.89 ± 0.42 µM
  kcat: 0.078 ± 0.00367 s⁻¹
  kcat/Km: 41300 M⁻¹ s⁻¹
[3]
  Km: 2.55 ± 0.63 µM
  kcat: 0.0845 ± 0.0045 s⁻¹
  kcat/Km: 33200 M⁻¹ s⁻¹
[4]
  Km: 12.8 ± 2.25 µM
  kcat: 0.0585 ± 0.00317 s⁻¹
  kcat/Km: 4500 M⁻¹ s⁻¹
